{
  "source": "patent US20050069887A1",
  "about": "“Dna synthesis promoters dna polymerase-associated factors and utilization thereof” (priority 2001, published 2005)",
  "molecules": {"B1": {"name": "KOD DNA polymerase: Thermococcus kodakaraensis KOD1-derived thermostable α-type DNA polymerase, SEQ ID NO: 1 (protein)", "chain": "MILDTDYITEDGKPVIRIFKKENGEFKIEYDRTFEPYFYALLKDDSAIEEVKKITAERHGTVVTVKRVEKVQKKFLGRPVEVWKLYFTHPQDVPAIRDKIREHPAVIDIYEYDIPFAKRYLIDKGLVPMEGDEELKMLAFDIETLYHEGEEFAEGPILMISYADEEGARVITWKNVDLPYVDVVSTEREMIKRFLRVVKEKDPDVLITYNGDNFDFAYLKKRCEKLGINFALGRDGSEPKIQRMGDRFAVEVKGRIHFDLYPVIRRTINLPTYTLEAVYEAVFGQPKEKVYAEEITTAWETGENLERVARYSMEDAKVTYELGKEFLPMEAQLSRLIGQSLWDVSRSSTGNLVEWFLLRKAYERNELAPNKPDEKELARRRQSYEGGYVKEPERGLWENIVYLDFRSLYPSIIITHNVSPDTLNREGCKEYDVAPQVGHRFCKDFPGFIPSLLGDLLEERQKIKKKMKATIDPIERKLLDYRQRAIKILANSYYGYYGYARARWYCKECAESVTAWGREYITMTIKEIEEKYGFKVIYSDTDGFFATIPGADAETVKKKAMEFLKYINAKLPGALELEYEGFYKRGFFVTKKKYAVIDEEGKITTRGLEIVRRDWSEIAKETQARVLEALLKDGDVEKAVRIVKEVTEKLSKYEVPPEKLVIHEQITRDLKDYKATGPHVAVAKRLAARGVKIRPGTVISYIVLKGSGRIGDRAIPFDEFDPTKHKYDAEYYIENQVLPAVERILRAFGYRKEDLRYQKTRQVGLSAWLKPKGT", "modifications": "Thermococcus kodakaraensis KOD1; KOD DNA polymerase"}, "B2": {"name": "RFC: replication factor C complex of KOD-mRFCS and KOD-RFCL derived from KOD1 (protein)", "chain 1": "MSEEVKEVKILEKPWVEKYRPQRLEDIVGQDHIVKRLKHYVKTGSMPHLLFAGPPGVGKTTAALALARELFGENWRHNFLELNASDERGINVIREKVKEFARTKPIGGASFKIIFLDEADALTQDAQQALRRTMEMFSNNVRFILSCNYSSKIIEPIQSRCAIFRFRPLRDEDIAKRIRYIAENEGLELTEEGLQAILYVAEGDLRRAINVLQAAAALDTKITDENVFLVASRARPEDVREMMTLALEGNFLKAREKLRDILLRQGLSGEDVLIQMHKEVFNLPIPEDKKVALADKIGEYNFRLVEGANEMIQLEALLAQFTIMGK", "chain 2": "MTEVPWVEKYRPRKLSEIVNQEKALEQVRAWVEAWLHGNPPKKKALLLAGPPGVGKTTTVYALANEYGFEVIELNASDERTYEKIERYVQAAYTMDILGKRRKLIFLDEADNIEPSGAREIAKLIDKARNPIIMSANHYWEVPREIRNKAQIVEYKRLTQRDIIKALVRILKREGLEVPKEVLYEIAKRANGDLRAAVNDLQTVVTGGVEDAVEVLAYRDTEKSVFQALAQLFATDNAKRAKLAVLGVDMMPNELLQWIDENVPYVYYRPEDIARAYEALSRADIYLGRAQRTGNYGLWKYATDMMTAGVAVAGIKKKGFVKIYPPKTIKLLTESKEERSLRDSVIKKIMSEMHMAKLEAIETLRYLRVIFENNPDLAAHFVVFLDLSEKEVEFITGDKEKAKTIWAKSMNIEKKLKKEGELEARAKEAERRVEAAEEEETMEAGEPEEELEEVEEEELTEEELEEAEEEIETVGKKEKPEKEKTKKGKQATLFDFLKK"}, "B3": {"name": "PCNA: proliferating cell nuclear antigen derived from Thermococcus kodakaraensis KOD1, SEQ ID NO: 2 (protein)", "chain": "MPFEVVFDGAKEFADLIATASNLIDEAAFKFTEEGISMRAMDPSRVVLIDLNLPESIFSKYEVEEPETIGINMDQFKKILKRGKAKDTLILRKGDENFLEITFEGTAKRTFRLPLIDVEELELELPELPFTAKVVLLGEVLKEGIKDASLVSDAIKFIAKENEFTMKAEGETNEVEIRLTLEDEGLLDLEVEEETKSAYGISYLSDMVKGIGKADEVILRFGNEMPLQMEYMIRDEGRLTFLLAPRVEE", "modifications": "Thermococcus kodakaraensis KOD1; KOD-PCNA"}},
  "key": {"[1]": {"target": "T1, KOD-plus DNA polymerase (Thermococcus kodakarensis, UniProt P77933, DEL407-766/DEL853-1389)", "T1 construct": "purchased Toyobo", "assay_type": "biochemical, Thermococcus kodakaraensis KOD1", "conditions": "2 mM potassium oxalate, FIG. 14", "method": "Oxalate ion and DMSO were investigated for their synergistic effectiveness for hot start enzyme in amplification of a target DNA which is difficult to amplify by usual PCR, using a KOD-plus DNA polymerase, i.e., hot start enzyme. Potassium oxalate was added to the PCR buffer supplied with KOD-plus (TOYOBO CO., LTD.) to attain a final concentration of 2 mM. Also used were 0.2 mM dNTPs and […] of a pair of primers of SEQ ID Nos:18 and 19, and 1.0 U KOD-plus DNA polymerase. 0.5 μL of cDNA obtained by reverse transcription of 500 ng of total RNA derived from human cell line K562 with ThermoScript (Invitrogen) was used as a template. This reaction mixture was subjected to PCR by using GeneAmp2400 (PE Applied Biosystems) to investigate the influence on the PCR results of varying the concentration of DMSO. The PCR conditions were as follows: 1 preliminary reaction of 94° C. for 2 minutes, and then 40 cycles of 94° C. for 15 seconds, 60° C. for 30 seconds and 68° C. for 9 minutes."}, "[2]": {"target": "T2, KOD DNA polymerase (Thermococcus kodakarensis, UniProt P77933, DEL407-766/DEL853-1389)", "test": "DNA elongation by KOD DNA polymerase on primed M13 mp18 DNA (Examples 3-10, 3-11)", "assay_type": "biochemical, Thermococcus kodakaraensis KOD1", "conditions": "for elongation (size of synthesized DNA): 75° C.", "method": "150 fmol of KOD DNA polymerase was reacted with 1.5 pmol of DNA obtained by annealing an M13 P7 primer (SEQ ID NO:59) to M13 mp18 DNA (circular single-stranded DNA) to determine processivity. 450 fmol, 1.5 pmol, 4.5 pmol and 15 pmol samples of KOD-PCNA obtained in Example 3-6 were added to reaction buffer solutions [20 mM Tris-HCl (pH 7.5 at 75° C.), 10 mM KCl, 6 mM (NH4)2SO4, 2 mM MgCl2, 0.1% Triton X-100, 10 μg/ml BSA]. The mixtures were reacted at 75° C. for varying times: 30 seconds, 60 seconds and 120 seconds, to investigate their degrees of elongation. In the course of the elongation reaction DNA samples were withdrawn at the above reaction times and added to the same quantity of a stop solution (60 mM EDTA, […], 0.1% BPB, 30% glycerol). The obtained DNA samples were separated by 1% alkaline agarose electrophoresis and analyzed to determine the sizes of the synthesized DNA.\nKOD DNA polymerase reactions were conducted in a similar manner to Example 3-10 either in the presence of KOD-PCNA or in the copresence of KOD-PCNA and KOD-RFC by using an circular single stranded DNA, which was annealed with a primer, as a substrate. […] This is presumably because almost all the KOD DNA polymerase molecules were available to react with PCNA in the presence of the RFC complex."}, "[3]": {"tested_on": "pMol 21", "conditions": "PCR product fidelity, rpsL / pMol 21 method; cited from earlier work"}, "[4]": {"tested_on": "KOD Dash DNA polymerase", "test": "PCR using mixed-type KOD Dash DNA polymerase with PCNA/RFC (Example 3-15)", "assay_type": "biochemical, Thermococcus kodakaraensis KOD1", "conditions": "1 ng template, FIG. 34", "method": "The effect produced by the combined use of KOD-PCNA protein and the KOD-RFC complex in PCR using a mixture of two kinds of DNA polymerases was investigated with the same target DNA and reaction solution as in Example 3-12\n1 ng of genomic DNA derived from human cell line K562 was used as a template. KOD Dash DNA polymerase, which is a mixture of KOD DNA polymerase and KOD (exo-) DNA polymerase which has lost KOD 3′-5′ exonuclease activity, was used as the mixed-type DNA polymerase."}, "[5]": {"target": "T2, KOD DNA polymerase", "test": "PCR of 3.6 kb globin cluster DNA using KOD DNA polymerase with PCNA/RFC (Examples 3-12 to 3-14)", "assay_type": "biochemical, Thermococcus kodakaraensis KOD1", "method": "The effect produced by the addition of KOD-PCNA protein on PCR amplification of a 3.6 kb DNA in a human […] cluster was investigated. The PCR buffer supplied with KOD-Plus (TOYOBO CO.,LTD), 0.2 mM dNTPs and 0.3 μM of a pair of primers of SEQ ID Nos:60 and 61 were used. 1 U KOD DNA polymerase was used as a heat-resistant DNA polymerase, and genomic DNA derived from human cell line K562 was used as a template. This reaction mixture was subjected to PCR using GeneAmp2400 (PE Applied Biosystems) to investigate the difference in the PCR results caused by the presence or absence of PCNA. The PCR conditions were as follows: 1 preliminary reaction of 94° C. for 2 minutes; and then 35 cycles of 94° C. for 20 seconds, 60° C. for 30 seconds and 68° C. for 4 minutes.\nThe effect produced by the addition of the KOD-RFC complex was investigated with the same target DNA and reaction solution as in Example 3-12. The amount of RFC effective for PCR was investigate by using 1 ng of genomic DNA derived from human cell line K562 as a template.\nThe effect produced by the addition of KOD-PCNA protein and KOD-RFC complex was investigated with the same target DNA and reaction solution as in Example 3-12. 1 ng of genomic DNA derived from human cell line K562 was used as a template and their optimal ratios were investigated."}, "[6]": {"conditions": "PCNA added in 30 times the molar amount of DNA polymerase"}},
  "note": "Where two headings read alike, the source gives them in different places.",
  "data": [
    {"molecule": "C[S+](C)[O-]", "note": "[DMSO, dimethylsulfoxide]", "values": [
      {"measurement": "amplification of target DNA", "setting": "[1]; 5% DMSO", "result": "sufficient amplification was observed"},
      {"measurement": "amplification of target DNA", "setting": "[1]; in the presence of DMSO, cDNA template", "result": "an increase in amplification amount was observed"}
    ]},
    {"molecule": "B1", "values": [
      {"measurement": "processivity", "setting": "[2]; no PCNA added", "result": "≥ 5", "unit": "kb"},
      {"measurement": "elongation (size of synthesized DNA)", "setting": "[2]; no PCNA added, reaction time 30 seconds", "result": 1.2, "unit": "kb"},
      {"measurement": "elongation (size of synthesized DNA)", "setting": "[2]; no PCNA added, reaction time 60 seconds", "result": 2.5, "unit": "kb"},
      {"measurement": "elongation (size of synthesized DNA)", "setting": "[2]; no PCNA added, reaction time 120 seconds", "result": 5, "unit": "kb"},
      {"measurement": "elongation rate", "setting": "[2]; no PCNA, 1.5 pmol substrate DNA relative to 150 fmol DNA polymerase", "result": "about 40 bases per second"},
      {"measurement": "mutation rate", "setting": "[3]", "result": "≤ 0.1", "unit": "%"}
    ]},
    {"molecule": "B2", "values": [
      {"measurement": "amplification of the target DNA", "setting": "[4]; further addition of RFC to PCNA", "result": "amplification of the target DNA was greatly clarified"},
      {"measurement": "amplification of the target DNA", "setting": "[5]; 1.5 pmol further added to 10 fmol of PCNA, 1 ng template, FIG. 33", "result": "sufficient amplification was observed"}
    ]},
    {"molecule": "B3", "values": [
      {"measurement": "DNA elongation rate of KOD DNA polymerase", "setting": "[2]; [6]", "result": 120, "unit": "bases per second"},
      {"measurement": "DNA elongation rate relative to the sample with no PCNA added", "setting": "[2]; [6]", "result": "about 3 times"},
      {"measurement": "DNA elongation rate", "setting": "[2]; only PCNA added, FIG. 30", "result": "an increase in the DNA elongation rate was observed"},
      {"measurement": "increase of DNA elongation rate compared to single use of KOD DNA polymerase", "setting": "[2]; using KOD-PCNA", "result": "several fold"},
      {"measurement": "amplification of the target DNA", "setting": "[4]; addition of PCNA", "result": "amplification of the target DNA was made somewhat clearer"},
      {"measurement": "amplification of the target DNA", "setting": "[5]; 10 fmol of PCNA alone, 1 ng template, FIG. 33", "result": "amplification of the target DNA was barely observed together with a smear"},
      {"measurement": "amplification of the target DNA", "setting": "[5]; 30 fmol of PCNA, 1 ng template DNA, FIG. 31", "result": "amplification of the target DNA was observed"},
      {"measurement": "amplification of the target DNA", "setting": "[5]; PCNA added, 3 ng template DNA, FIG. 31", "result": "amplification of the target DNA was more clearly observed"},
      {"measurement": "increase of PCR sensitivity", "setting": "[5]; addition of PCNA", "result": "at least 3 fold"}
    ]}
  ]
}
